What follows are molecules tested on corn protoplasts (assay: Calcium burst in transiently transfected corn protoplasts, R-GECO1.2 fluorescence reporter). Conditions: Example 3, FIG. 4; 1 μM PpNLP20; 40 minutes; 384-well.
Assay type: cell-based, Zea mays
Text: Following ligand (also known as elicitor) binding, PRRs are activated and induce a transient increase of cytosolic Ca^2+ concentration as part of a PTI response. […] In a high-throughput method, the kinetics of PRR-dependent transient variation of cytosolic Ca^2+ concentration can be measured with a fluorimeter or luminometer and in microplate formats of 96 or 384 wells.
Fluorescence was monitored using a fluorimeter equipped with a 100 Hz xenon flash lamp with excitation at 556 nm and emission measured at 585 nm for 100 ms, every 22.6 seconds for 42 minutes.
All of the AtRLP23 constructs have an operably linked 2×35S+Ω promoter construct (SEQ ID NO: 72) and an operably linked rbcS terminator (SEQ ID NO: 73)
Fluorescence was monitored using a fluorimeter equipped with a 100 Hz xenon flash lamp with excitation at 556 nm and emission measured at 585 nm for 30 ms, every 20.2 seconds for 40 minutes. For each fluorescence measurement, the transient change in R-GECO1.2 fluorescence (ΔF) are calculated from background corrected intensity values as (F-Fo), where F represents the average fluorescence intensity of the a batch of protoplasts treated with elicitor, and Fo represents the average fluorescence intensity of the same batch of protoplasts treated with a control solution that lacks the elicitor but is otherwise identical or essentially identical in composition to the solution comprising the elicitor.

Row | Molecule | responsiveness to PpNLP20 treatment compared to AtRLP23-3×FLAG (total transient increase of fluorescence)
1 | AtRLP23+TM-AtEFR-3×FLAG: AtRLP23 apoplastic, eJM and TM domains, AtEFR cytoplasmic domain, 3×FLAG; SEQ ID NO: 33, 34 (protein, Fusion protein) MSKALLHLHFLSLFLLCCVCHSSIFTLNFHFTGIVACRPHQIQAFTKFTNEFDTRGCNNSDTFNGVWCDNSTGAVAVLQLRKCLSGTLKSNSSLFGFHQLRYVDLQNNNLTSSSLPSGFGNLKRLEGLFLSSNGFLGQVPSSFSNLTMLAQLDLSYNKLTGSFPLVRGLRKLIVLDLSYNHFSGTLNPNSSLFELHQLRYLNLAFNNFSSSLPSKFGNLHRLENLILSSNGFSGQVPSTISNLTRLTKLYLDQNKLTSSFPLVQNLTNLYELDLSYNKFFGVIPSSLLTLPFLAHLALRENNLAGSVEVSNSSTSSRLEIMYLGSNHFEGQILEPISKLINLKHLDLSFLNTSYPIDLKLFSSLKSLRSLDLSGNSISSASLSSDSYIPLTLEMLTLRHCDINEFPNILKTLKELVYIDISNNRMKGKIPEWLWSLPLLQSVTLGNNYFTGFQGSAEILVNSSVLLLYLDSNNFEGALPDLPLSIKGFGVASNSFTSEIPLSICNRSSLAAIDLSYNNFTGPIPPCLRNLELVYLRNNNLEGSIPDALCDGASLRTLDVSHNRLTGKLPRSFVNCSSLKFLSVINNRIEDTFPFWLKALPNLQVLTLRSNRFYGPISPPHQGPLGFPELRIFEISDNKFTGSLPPNYFVNWKASSRTMNQDGGLYMVYEEKLFDEGGYGYTDALDLQYKGLHMEQAKALTSYAAIDFSGNRLEGQIPESIGLLKALIAVNISNNAFTGHIPLSMANLENLESLDMSRNQLSGTIPNGLGSISFLAYINVSHNQLTGEIPQGTQITGQSKSSFEGNAGLCGLPLKESCFGTGAPPMYHQKQEDKEEEEEEEEEEEEVLNGRAVAIGYGSGLLLGLAIAQVIASYKRKKKNNASDGNPSDSTTLGMFHEKVSYEELHSATSRFSSTNLIGSGNFGNVFKGLLGPENKLVAVKVLNLLKHGATKSFMAECETFKGIRHRNLVKLITVCSSLDSEGNDFRALVYEFMPKGSLDMWLQLEDLERVNDHSRSLTPAEKLNIAIDVASALEYLHVHCHDPVAHCDIKPSNILLDDDLTAHVSDFGLAQLLYKYDRESFLNQFSSAGVRGTIGYAAPEYGMGGQPSIQGDVYSFGILLLEMFSGKKPTDESFAGDYNLHSYTKSILSGCTSSGGSNAIDEGLRLVLQVGIKCSEEYPRDRMRTDEAVRELISIRSKFFSSKTTITESPRDAPQSSPQEWMLNTDMHTMASDYKDHDGDYKDHDLDAAAADYKDDDDK | comparable responsiveness
2 | AtRLP23-AtEFR-3×FLAG: AtRLP23 apoplastic and eJM domains, AtEFR TM and cytoplasmic domains, 3×FLAG; SEQ ID NO: 17, 18 (protein, Fusion protein) MSKALLHLHFLSLFLLCCVCHSSIFTLNFHFTGIVACRPHQIQAFTKFTNEFDTRGCNNSDTFNGVWCDNSTGAVAVLQLRKCLSGTLKSNSSLFGFHQLRYVDLQNNNLTSSSLPSGFGNLKRLEGLFLSSNGFLGQVPSSFSNLTMLAQLDLSYNKLTGSFPLVRGLRKLIVLDLSYNHFSGTLNPNSSLFELHQLRYLNLAFNNFSSSLPSKFGNLHRLENLILSSNGFSGQVPSTISNLTRLTKLYLDQNKLTSSFPLVQNLTNLYELDLSYNKFFGVIPSSLLTLPFLAHLALRENNLAGSVEVSNSSTSSRLEIMYLGSNHFEGQILEPISKLINLKHLDLSFLNTSYPIDLKLFSSLKSLRSLDLSGNSISSASLSSDSYIPLTLEMLTLRHCDINEFPNILKTLKELVYIDISNNRMKGKIPEWLWSLPLLQSVTLGNNYFTGFQGSAEILVNSSVLLLYLDSNNFEGALPDLPLSIKGFGVASNSFTSEIPLSICNRSSLAAIDLSYNNFTGPIPPCLRNLELVYLRNNNLEGSIPDALCDGASLRTLDVSHNRLTGKLPRSFVNCSSLKFLSVINNRIEDTFPFWLKALPNLQVLTLRSNRFYGPISPPHQGPLGFPELRIFEISDNKFTGSLPPNYFVNWKASSRTMNQDGGLYMVYEEKLFDEGGYGYTDALDLQYKGLHMEQAKALTSYAAIDFSGNRLEGQIPESIGLLKALIAVNISNNAFTGHIPLSMANLENLESLDMSRNQLSGTIPNGLGSISFLAYINVSHNQLTGEIPQGTQITGQSKSSFEGNAGLCGLPLKESCFGTGAPPMYHQKQEDKEEEEEEEEEEEEVLNGRVVSGICIGIASLLLIIIVASLCWFMKRKKKNNASDGNPSDSTTLGMFHEKVSYEELHSATSRFSSTNLIGSGNFGNVFKGLLGPENKLVAVKVLNLLKHGATKSFMAECETFKGIRHRNLVKLITVCSSLDSEGNDFRALVYEFMPKGSLDMWLQLEDLERVNDHSRSLTPAEKLNIAIDVASALEYLHVHCHDPVAHCDIKPSNILLDDDLTAHVSDFGLAQLLYKYDRESFLNQFSSAGVRGTIGYAAPEYGMGGQPSIQGDVYSFGILLLEMFSGKKPTDESFAGDYNLHSYTKSILSGCTSSGGSNAIDEGLRLVLQVGIKCSEEYPRDRMRTDEAVRELISIRSKFFSSKTTITESPRDAPQSSPQEWMLNTDMHTMASDYKDHDGDYKDHDLDAAAADYKDDDDK | increased responsiveness
3 | AtRLP23-OsXA21-3×FLAG: AtRLP23 apoplastic and eJM domains, OsXA21 TM and cytoplasmic domains, 3×FLAG; SEQ ID NO: 21, 22 (protein, Fusion protein) MSKALLHLHFLSLFLLCCVCHSSIFTLNFHFTGIVACRPHQIQAFTKFTNEFDTRGCNNSDTFNGVWCDNSTGAVAVLQLRKCLSGTLKSNSSLFGFHQLRYVDLQNNNLTSSSLPSGFGNLKRLEGLFLSSNGFLGQVPSSFSNLTMLAQLDLSYNKLTGSFPLVRGLRKLIVLDLSYNHFSGTLNPNSSLFELHQLRYLNLAFNNFSSSLPSKFGNLHRLENLILSSNGFSGQVPSTISNLTRLTKLYLDQNKLTSSFPLVQNLTNLYELDLSYNKFFGVIPSSLLTLPFLAHLALRENNLAGSVEVSNSSTSSRLEIMYLGSNHFEGQILEPISKLINLKHLDLSFLNTSYPIDLKLFSSLKSLRSLDLSGNSISSASLSSDSYIPLTLEMLTLRHCDINEFPNILKTLKELVYIDISNNRMKGKIPEWLWSLPLLQSVTLGNNYFTGFQGSAEILVNSSVLLLYLDSNNFEGALPDLPLSIKGFGVASNSFTSEIPLSICNRSSLAAIDLSYNNFTGPIPPCLRNLELVYLRNNNLEGSIPDALCDGASLRTLDVSHNRLTGKLPRSFVNCSSLKFLSVINNRIEDTFPFWLKALPNLQVLTLRSNRFYGPISPPHQGPLGFPELRIFEISDNKFTGSLPPNYFVNWKASSRTMNQDGGLYMVYEEKLFDEGGYGYTDALDLQYKGLHMEQAKALTSYAAIDFSGNRLEGQIPESIGLLKALIAVNISNNAFTGHIPLSMANLENLESLDMSRNQLSGTIPNGLGSISFLAYINVSHNQLTGEIPQGTQITGQSKSSFEGNAGLCGLPLKESCFGTGAPPMYHQKQEDKEEEEEEEEEEEEVLNGRFPVLPISVSLAAALAILSSLYLLITWHKRTKKGAPSRTSMKGHPLVSYSQLVKATDGFAPTNLLGSGSFGSVYKGKLNIQDHVAVKVLKLENPKALKSFTAECEALRNMRHRNLVKIVTICSSIDNRGNDFKAIVYDFMPNGSLEDWIHPETNDQADQRHLNLHRRVTILLDVACALDYLHRHGPEPVVHCDIKSSNVLLDSDMVAHVGDFGLARILVDGTSLIQQSTSSMGFIGTIGYAAPEYGVGLIASTHGDIYSYGILVLEIVTGKRPTDSTFRPDLGLRQYVELGLHGRVTDVVDTKLILDSENWLNSTNNSPCRRITECIVWLLRLGLSCSQELPSSRTPTGDIIDELNAIKQNLSGLFPVCEGGSLEFSDYKDHDGDYKDHDLDAAAADYKDDDDK | increased responsiveness
4 | AtRLP23+TM-AtSOBIR1-3×FLAG: AtRLP23 apoplastic, eJM and TM domains, AtSOBIR1 cytoplasmic domain, 3×FLAG; SEQ ID NO: 41, 42 (protein, Fusion protein) MSKALLHLHFLSLFLLCCVCHSSIFTLNFHFTGIVACRPHQIQAFTKFTNEFDTRGCNNSDTFNGVWCDNSTGAVAVLQLRKCLSGTLKSNSSLFGFHQLRYVDLQNNNLTSSSLPSGFGNLKRLEGLFLSSNGFLGQVPSSFSNLTMLAQLDLSYNKLTGSFPLVRGLRKLIVLDLSYNHFSGTLNPNSSLFELHQLRYLNLAFNNFSSSLPSKFGNLHRLENLILSSNGFSGQVPSTISNLTRLTKLYLDQNKLTSSFPLVQNLTNLYELDLSYNKFFGVIPSSLLTLPFLAHLALRENNLAGSVEVSNSSTSSRLEIMYLGSNHFEGQILEPISKLINLKHLDLSFLNTSYPIDLKLFSSLKSLRSLDLSGNSISSASLSSDSYIPLTLEMLTLRHCDINEFPNILKTLKELVYIDISNNRMKGKIPEWLWSLPLLQSVTLGNNYFTGFQGSAEILVNSSVLLLYLDSNNFEGALPDLPLSIKGFGVASNSFTSEIPLSICNRSSLAAIDLSYNNFTGPIPPCLRNLELVYLRNNNLEGSIPDALCDGASLRTLDVSHNRLTGKLPRSFVNCSSLKFLSVINNRIEDTFPFWLKALPNLQVLTLRSNRFYGPISPPHQGPLGFPELRIFEISDNKFTGSLPPNYFVNWKASSRTMNQDGGLYMVYEEKLFDEGGYGYTDALDLQYKGLHMEQAKALTSYAAIDFSGNRLEGQIPESIGLLKALIAVNISNNAFTGHIPLSMANLENLESLDMSRNQLSGTIPNGLGSISFLAYINVSHNQLTGEIPQGTQITGQSKSSFEGNAGLCGLPLKESCFGTGAPPMYHQKQEDKEEEEEEEEEEEEVLNGRAVAIGYGSGLLLGLAIAQVIASYKLIIQAIRGSEKPPGPSIFSPLIKKAEDLAFLENEEALASLEIIGRGGCGEVFKAELPGSNGKIIAVKKVIQPPKDADELTDEDSKFLNKKMRQIRSEINTVGHIRHRNLLPLLAHVSRPECHYLVYEYMEKGSLQDILTDVQAGNQELMWPARHKIALGIAAGLEYLHMDHNPRIIHRDLKPANVLLDDDMEARISDFGLAKAMPDAVTHITTSHVAGTVGYIAPEFYQTHKFTDKCDIYSFGVILGILVIGKLPSDEFFQHTDEMSLIKWMRNIITSENPSLAIDPKLMDQGFDEQMLLVLKIACYCTLDDPKQRPNSKDVRTMLSQIKHSDYKDHDGDYKDHDLDAAAADYKDDDDK | increased responsiveness

— US20220251595A1, “ENGINEERED ATRLP23 PATTERN RECOGNITION RECEPTORS AND METHODS OF USE” (priority 2019, published 2022)
